Data published in the supplement of paper PMC11865577.

What was measured:
Assay in all cases: pull-down binding Z-score (relative to library population); higher = stronger binding
[1] = tested on: TO-3-N3 (biotin conjugate); details: RNA library: Library-2
Procedure, shortened: (§1)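 The RNA library, end-labelled with Cy5 or Cy3, was heat-folded in phosphate/NaCl/KCl buffer, and 1 μg was incubated at 25 °C for 60 min with streptavidin beads carrying 100 pmol of biotin-conjugated small molecule. Hot SDS released the bound RNA, which was then hybridised to a DNA barcode microarray for 20 h at 55.5 °C. For scoring binding, signal from beads alone was subtracted, replicate barcoded probes were averaged after discarding the highest and lowest, and each value was turned into a Z-score from the library mean and standard deviation.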

[2] = tested on: G-clamp-N3 (biotin conjugate); details: RNA library: Library-1 (pre-miRNA loops + repeats)
Procedure, shortened: as §1

[3] = tested on: TO-3-N3-2 (biotin conjugate); details: RNA library: Library-2
Procedure, shortened: as §1

[4] = tested on: TO-N3-2 (biotin conjugate); details: RNA library: Library-2
Procedure, shortened: as §1

TO-N3 (biotin conjugate) = details: RNA library: Library-2
Procedure, shortened: as §1

Sequence	pull-down binding Z-score [1]	pull-down binding Z-score [2]	pull-down binding Z-score [3]	pull-down binding Z-score [4]	pull-down binding Z-score (TO-N3 (biotin conjugate))
UCAGUUUUGUAGCAUCAAAACU [hsa-mir-4521]	-0.308	-0.216	-0.161	-0.134	-0.342
UCAUAAAGAUGAUC [hsa-mir-8067]	0.251	-0.0232	0.0624	0.0453	0.381
UCAUAAAUAUUUUAAGGAAUGACCCGGCCCUGGGG [hsa-mir-4285]	-0.306	-0.171	0.31	0.308	-0.199
UCAUUUAUGUGAACUAAAAUAUAAAUUU [hsa-mir-513a-2_513a-1]	-1.03	-1.8	-0.361	-1.11	-1.25
UCCAACCUGAAAUCCUUCUGUAGGUUGAG [hsa-mir-5702]	-0.291	1.18	-0.273	0.0189	-0.245
UCCACAAGGAGGGGAUGACCCUUGUGGG [hsa-mir-4437]	4.12	-0.125	3.06	1.37	3.14
UCCACACUGACAAGGGCCGUGGGG [hsa-mir-3191]	1.19	-0.843	0.217	0.967	1.19
UCCACCCCCAGAGAAUCCCUAAACCGGGGGUGGA [hsa-mir-1289-1]	-0.51	-1.69	-0.243	-0.449	-0.645
UCCACCCUGGUCCAGGUCCACAGCAGUGGA [hsa-mir-4644]	0.173	-0.617	0.0936	0.479	0.441
UCCACCUAGACGGGCCUGGGUCAA [hsa-mir-4698]	0.349	-0.781	-0.0391	0.907	0.552
UCCAGACGGAGAUGCGA [hsa-mir-611]	-0.353	-1.18	-0.000716	0.858	0.192
UCCAGAGGCAUCCCUAACCCAGAAUCUUUUGACUGUCCUCUGGA [hsa-mir-4306]	-0.198	-0.668	-0.358	-0.281	-0.253
UCCAGCUGUGUGAUAUUCUGCUG [hsa-mir-19b-1]	0.907	-0.727	0.159	0.384	0.909
UCCAGGAUCUGGGUUUUGAGGUCUUGG [hsa-mir-4309]	0.835	0.525	0.267	0.345	0.673
UCCAGGCAUCUGUGUCUG [hsa-mir-4669]	1.48	-0.0379	0.402	0.591	1.52
UCCAGGGCUCCUGACACCUGGA [hsa-mir-6861]	-0.649	-0.943	-0.533	-0.248	-0.785
UCCAGUGUGGCUCGGAGGCUGGA [hsa-mir-139]	0.91	3.31	0.381	1.18	1.23
UCCAUGAAAAGAACCCAUGGG [hsa-mir-4471]	-0.455	-0.734	0.0519	-0.307	-0.608
UCCCAGCCACUCUGGAGG [hsa-mir-4419b]	0.274	0.653	-0.194	0.631	0.44
UCCCAGGAAAUUCACUUUAGGAAGUCCUAGGA [hsa-mir-5571]	-0.734	0.804	-0.303	-1.41	-1.1
UCCCAGGCCCUUCCUCCAAUACUGGGA [hsa-mir-4666b]	-0.252	-0.809	-0.0987	-0.446	-0.383
UCCCAUUUCCACAUGGAGAGUGGAGCCCAGA [hsa-mir-3123]	0.384	1.02	0.0927	0.671	0.639
UCCCCAGAAGCUGAGGAUUAGGGGA [hsa-mir-6503]	0.0937	1.93	-0.131	-0.108	-0.0188
UCCCCUAGCGCGCCUUCUGGAGA [hsa-mir-3188]	-0.271	1.12	-0.0116	0.507	-0.0603
UCCCCUCAGGA [hsa-mir-5703]	0.0295	0.99	-0.595	-0.802	-0.256
UCCCUUCCUGGACACACAGGAGGAGA [hsa-mir-5680]	-0.738	-1.27	-0.8	-0.56	-0.874

Sequence	pull-down binding Z-score [1]	pull-down binding Z-score [2]	pull-down binding Z-score [3]	pull-down binding Z-score [4]	pull-down binding Z-score (TO-N3 (biotin conjugate))
UCCGGCCGGCCAUGCUGGCGGGG [hsa-mir-762]	-0.72	0.45	-0.506	0.213	-0.676
UCCUAGGCGGGUCGCUGCGGUACCUCCCUCCUGUCUGUGGCGGUGGGAUCCCGUGGCCGUGUUUUCCUGGUG [hsa-mir-663b]	-0.114	-0.826	-0.0831	1.55	0.683
UCCUCAGACCAGGUGGCUCCCGAGCCACCCCAGGCUGUAGG [hsa-mir-2392]	-0.0269	-1.09	-0.183	1.75	0.743
UCCUCCACAAAUGCGUGUGGAGGA [hsa-mir-4633]	-0.89	0.135	-0.698	-1.6	-1.34
UCCUCCAUGCUUGGAAAAUGCAGGGAGGA [hsa-mir-764]	-0.857	0.669	-0.61	-1.01	-0.987
UCCUCUCCUGGUCUGGGAGGAUAGAAGAGAGGA [hsa-mir-5191]	-0.205	1.96	-0.219	3.13	0.823
UCCUGAGACAGGA [hsa-mir-4261]	-0.563	-0.47	-0.5	-1.02	-0.807
UCCUGAGCUAGGAGGAUUAGGA [hsa-mir-5093]	-0.171	1.05	-0.0611	0.417	-0.07
UCCUGAUCUGAUGGAAGUCAUGA [hsa-mir-7843]	-0.312	-0.244	-0.16	0.409	-0.0481
UCCUGAUGGUCCCCUCCCCAGGG [hsa-mir-185]	0.122	-1.02	-0.187	0.784	0.275
UCCUGGGAAGCAUGGUAGCCAGGA [hsa-mir-5192]	0.314	2.06	0.431	0.994	0.319
UCCUGUAGUGUCUUAUAUACAAUACAGUAGGA [hsa-mir-613]	-0.741	-0.0831	-0.802	-0.539	-0.743
UCCUUUUCUCUACCUUGUAGAGAAGCA [hsa-mir-3609]	0.0918	-0.207	-0.379	-0.258	0.281
UCGAGAGGUCAGAGGAUUGCUCCUGA [hsa-mir-5585]	0.00526	3.56	-0.227	1.67	0.496
UCGCCUAGGGCUCUGAGCAGGGCA [hsa-mir-211]	1.36	1.4	0.463	1.47	1.72
UCGGCACUAUUGUGACUGU [hsa-mir-7855]	0.693	-0.0938	-0.16	0.0889	0.611
UCGUCAGUGUUUGA [hsa-mir-8073]	-0.443	-0.342	-0.295	-0.296	-0.468
UCUAUCUGUAUUCUUACUGAAGGGA [hsa-mir-504]	-0.739	0.763	-0.42	-0.728	-0.937
UCUCAAAAUAAUUCUGCAGUGAGA [hsa-mir-4524b]	-0.872	2.26	0.0866	-0.868	-1.13
UCUCAAUCCAUUCAUAUUGAAA [hsa-mir-3662]	0.563	-1.04	-0.33	-0.68	0.226
UCUGCAGGUUCGCACUGAUGCCUGCUCG [hsa-mir-6726]	0.0628	0.44	-0.102	0.569	0.309
UCUGCUUUAUUUCAUCAAAGCAGA [hsa-mir-4773-1]	-0.916	-0.484	-0.676	-1.41	-1.36
UCUGCUUUGAUGAAAUAAAGCAGA [hsa-mir-4773-2]	-0.145	-0.541	-0.423	-1.05	-0.206
UCUGGGGAGAGAGUCCUCUUUUCAGC [hsa-mir-8082]	0.432	-0.804	-0.234	0.614	0.571
UCUGUUGCUUGAAAGAAGAGA [hsa-mir-526a-1]	0.85	1.67	-0.154	0.215	0.922
UCUGUUGUCUGAAAGAAAACA [hsa-mir-518b_518c]	-0.441	-0.569	0.0546	0.0545	-0.285

Sequence	pull-down binding Z-score [1]	pull-down binding Z-score [2]	pull-down binding Z-score [3]	pull-down binding Z-score [4]	pull-down binding Z-score (TO-N3 (biotin conjugate))
UCUGUUUGUUUUCUCUUAAACA [hsa-mir-519d]	-0.418	-0.0316	-0.553	-0.847	-0.828
UCUGUUUUAAGUAACAGA [hsa-mir-7705]	-0.812	0.244	-0.214	-1.85	-1.32
UCUUAGACUAUUACAAGA [hsa-mir-3672]	0.922	-0.633	0.0159	-0.526	0.614
UCUUAGCACGGGGUCUAAGG [hsa-mir-4747]	-0.188	0.0593	-0.0231	-0.257	-0.33
UCUUCCCAAAGUUGAGAAAA [hsa-mir-320d-1]	-0.611	-1.32	-0.407	-0.758	-0.746
UCUUCCCAGAAUUGGGAAAA [hsa-mir-320c-2]	-0.813	-0.574	-0.72	-1.68	-1.33
UCUUCCCAGAGUCAGGAAAA [hsa-mir-320c-1]	-0.17	-1.1	-0.0416	0.191	-0.0041
UCUUCCCGGAGUCGGGAAAA [hsa-mir-320a]	-0.0669	1.85	-0.307	-0.901	-0.187
UCUUCUUGGAGUCAGGAAAA [hsa-mir-320d-2]	-0.553	-0.411	-0.458	-0.514	-0.663
UCUUCUUUUGGAAGGAAGA [hsa-mir-3122]	-0.175	0.729	-0.532	-1.53	-0.591
UCUUGAAUUUUUGCCAGUUCAAGA [hsa-mir-5197]	-0.956	0.24	-0.517	-1.38	-1.33
UCUUGGUGCCACCAUUGAGAACGCCAGGA [hsa-mir-492]	-0.644	-1.02	-0.506	0.868	-0.279
UCUUUCAUUUUGGAUUUGACU [hsa-mir-766]	0.116	-0.725	-0.03	-0.612	-0.0798
UCUUUGGUAAUAAGGUUUGGCAAAGA [hsa-mir-576]	1.04	1.47	0.625	-0.0599	0.862
UGAAAGGUUUUUUCUCUCA [hsa-mir-4797]	-0.332	0.0116	-0.248	-0.918	-0.402
UGAACAGUGAUUGGUUUCCGCUUUGUUCA [hsa-mir-27b]	0.138	-0.672	0.275	-0.317	0.133
UGAAGAAGAGUAUUGAUUGUGCUGUUCG [hsa-mir-6788]	0.425	0.592	-0.00107	0.16	0.494
UGAAGCCCCGAGAUGCCUCACGUCUUCA [hsa-mir-6802]	0.00057	-1.85	-0.123	0.573	0.243
UGAAGGUCACCAUGUUCUCCUUG [hsa-mir-3187]	0.0716	-0.816	-0.354	-0.229	0.145
UGAAUAUGUAAUAUAAGUGUAUUG [hsa-mir-450b]	0.214	0.397	0.32	-0.284	0.261
UGAAUUGAAAUGCGUUACAUUCA [hsa-mir-95]	0.0702	-0.13	-0.0666	0.088	-0.0852
UGACUACUUCGAAAAUGGGAAGUAGACA [hsa-mir-7849]	0.0977	3.04	-0.277	-0.497	0.00324
UGACUCAGAUCU [hsa-mir-759]	-0.321	-1.38	-0.249	-0.155	-0.271
UGAGACCUGGUGCAGAACGGGAAGGCGA [hsa-mir-551b]	0.308	1.4	0.479	1.76	1.23
